# Reference: patent publication US20140086916A1 (Merck Sharp & Dohme, published 2014)
# Values joined by “and” are separate entries in the source; they are usually repeats but may differ in a detail not shown here. Equal entries are not always repeated. Where two headings read alike, the source gives them in different places.
# T1: FcγRIIb (Pichia pastoris produced) (UniProt P31994 43-217, limits assumed)
# T1 construct: also called FcgRIIB; CD32B
# T1 sequence (looked up): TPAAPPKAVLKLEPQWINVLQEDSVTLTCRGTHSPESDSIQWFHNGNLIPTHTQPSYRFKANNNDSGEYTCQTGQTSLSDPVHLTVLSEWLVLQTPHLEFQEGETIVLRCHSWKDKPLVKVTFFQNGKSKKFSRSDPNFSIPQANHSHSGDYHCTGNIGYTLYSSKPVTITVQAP
# T2: FcγRIIA H (UniProt P12318 34-217, limits assumed)
# T2 construct: also called FcgRIIA H
# T2 sequence (looked up): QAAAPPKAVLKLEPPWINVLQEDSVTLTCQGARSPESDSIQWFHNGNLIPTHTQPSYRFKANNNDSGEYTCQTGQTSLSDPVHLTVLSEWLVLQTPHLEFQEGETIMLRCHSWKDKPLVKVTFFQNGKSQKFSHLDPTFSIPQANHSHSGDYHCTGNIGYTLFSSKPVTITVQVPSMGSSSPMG
# B1: 1F11 IgG1 F243A/V264A/S267E/L328F quadruple mutein anti-PCSK9 antibody (antibody)
# heavy: QVQLVQSGAEVKKPGASVKVSCKVSGYTFTDYYMNWVRQAPGQGLEWIGDINPNNGGAIYNQKFKGRATLTVDKSTSTAYMELRSLRSDDTAVYYCTSGIITEIAEDFWGQGTLVTVSSASTKGPSVFPLAPSSKSTSGGTAALGCLVKDYFPEPVTVSWNSGALTSGVHTFPAVLQSSGLYSLSSVVTVPSSSLGTQTYICNVNHKPSNTKVDKKVEPKSCDKTHTCPPCPAPELLGGPSVFLAPPKPKDTLMISRTPEVTCVVADVEHEDPEVKFNWYVDGVEVHNAKTKPREEQYNSTYRVVSVLTVLHQDWLNGKEYKCKVSNKAFPAPIEKTISKAKGQPREPQVYTLPPSRDELTKNQVSLTCLVKGFYPSDIAVEWESNGQPENNYKTTPPVLDSDGSFFLYSKLTVDKSRWQQGNVFSCSVMHEALHNHYTQKSLSLSPG
# light: DIQMTQSPSSLSASVGDRVTITCKASQNVGTNVVWYQQKPGKAPKALIHSASYRYSGVPSRFSGSGSGTDFTLTISSLQPEDFATYYCQQYKTYPYTFGQGTKVEIKRTVAAPSVFIFPPSDEQLKSGTASVVCLLNNFYPREAKVQWKVDNALQSGNSQESVTEQDSKDSTYSLSSTLTLSKADYEKHKVYACEVTHQGLSSPVTKSFNRGEC
# notes: Produced in Pichia pastoris GFI6.0; The strains give the same polypeptide with different N-glycan profiles; also called 1F11 QM; YGLY25265
# B2: human IgG1 Fc ("hFc") QM (F243A/V264A/S267E/L328F quadruple mutein Fc domain) (other)
# chain: AEPKSCDKTHTCPPCPAPELLGGPSVFLAPPKPKDTLMISRTPEVTCVVADVEHEDPEVKFNWYVDGVEVHNAKTKPREEQYNSTYRVVSVLTVLHQDWLNGKEYKCKVSNKAFPAPIEKTISKAKGQPREPQVYTLPPSRDELTKNQVSLTCLVKGFYPSDIAVEWESNGQPENNYKTTPPVLDSDGSFFLYSKLTVDKSRWQQGNVFSCSVMHEALHNHYTQKSLSLSPGK
# notes: Fc fragment of human IgG1 with hinge, produced in Pichia pastoris GFI6.0 host YGLY22834; also called YGLY28722; YGLY28725
# Legend:
# [1] = molecular target: T1, FcγRIIb (Pichia pastoris produced); test: FcγR affinity assay 'as described in Example 7', n = 3; printed as Affinity (nM) ± STDEV
# Protocol: (§1) Fcγ receptor binding assays were carried out as described (Shields, et al. (2001) J. Biol. Chem. 276:6591-6604) with minor modifications. High protein binding 96-well plates (Corning Costar) were coated with 100 μL per well of Fcγ receptor solutions in PBS at the following concentrations: 1 μg/mL for both FcγRI (R&D Systems) and FcγRIIa (Pichia pastoris produced), 2 μg/mL for FcγRIIb (P. pastoris produced), 0.8 μg/mL for FcγRIIIa-F158, and 0.4 μg/mL for FcγRIIIa-V158 (both P. pastoris produced). All Pichia pastoris produced receptors were expressed and purified as described (Li, et al. (2006) Nature Biotechnology 24:210-215). Monomeric antibody samples added to the FcγRI plate were serially diluted in assay diluent (1×PBS, 1% BSA, and 0.05% Tween20) and 100 μL, per well was added to the plate. Antibody samples prepared for the remaining receptors require a one hour dimerization step with half molar ratio of goat anti-human IgG F(ab′)2 F(ab′)2 that is conjugated with alkaline phosphatase for detection. These dimerized F(ab′)2/antibody complexes were also serially diluted and 100 μL per well were added to the remaining receptor plates and all plates were incubated for one hour at room temperature. FcγRI bound sample antibody was detected using the same goat anti-human IgG F(ab′)2 alkaline phosphatase conjugated F(ab′)2. Sample antibody binding was quantified by measuring excitation at 340 nm and emission at 465 nm after 18 hour incubation with SuperPhos, 4-MUP Fluorescence AP Substrate Detection System (Virolabs).
# [2] = molecular target: T3, FcγRIIIa-F158 (Pichia pastoris produced) (UniProt P08637 17-208, limits assumed); test: fold change of the Table 12 affinities (arrow not given); Table 13 fold change computed from the Table 12 affinities
# T3 construct: also called FcγRIIIA LF; FcgRIIIA LF
# T3 sequence (P08637 17-208 limits assumed): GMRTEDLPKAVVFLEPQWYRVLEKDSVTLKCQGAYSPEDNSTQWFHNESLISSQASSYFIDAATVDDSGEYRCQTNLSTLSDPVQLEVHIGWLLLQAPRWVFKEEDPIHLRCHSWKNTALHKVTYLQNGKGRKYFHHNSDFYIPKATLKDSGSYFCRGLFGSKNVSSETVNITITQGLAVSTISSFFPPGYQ
# Protocol: as §1, with “These dimerized F(ab′)2/antibody complexes were also serially diluted and 100 μL per well were added to the remaining receptor plates and all plates were incubated for one hour at room temperature.” left out
# [3] = molecular target: T1, FcγRIIb (Pichia pastoris produced); test: ELISA-type plate assay, FcγR coated, antibody dimerized with AP-conjugated goat anti-human IgG F(ab')2, RFU readout
# Protocol: as §1
# [4] = molecular target: T1, FcγRIIb (Pichia pastoris produced); test: as above; remark: listed apart in the source
# Protocol: as §1
# [5] = molecular target: T3, FcγRIIIa-F158 (Pichia pastoris produced); test: FcγR affinity assay 'as described in Example 7', n = 3; printed as Affinity (nM) ± STDEV; footnote: values > ~5000 nM mean a poor binder; Table 12 affinity (nM) assay, n = 3; value outside the tested concentration range
# Protocol: as §1, with “These dimerized F(ab′)2/antibody complexes were also serially diluted and 100 μL per well were added to the remaining receptor plates and all plates were incubated for one hour at room temperature.” left out
# [6] = molecular target: T4, FcγRIIIa-V158 (Pichia pastoris produced) (UniProt P08637 17-208, limits assumed); test: as above
# T4 construct: also called FcγRIIIA LV; FcgRIIIA LV
# T4 sequence (P08637 17-208 F176V limits assumed): as the sequence (P08637 17-208 limits assumed) above, with F160V counted along it
# Protocol: as §1, with “These dimerized F(ab′)2/antibody complexes were also serially diluted and 100 μL per well were added to the remaining receptor plates and all plates were incubated for one hour at room temperature.” left out
# [7] = molecular target: T5, wild-type human PCSK9 (human, UniProt Q8NBP7 31-692, limits assumed); test: SPR (Biacore T100), average KD of the six YGLY25267 runs
# T5 construct: also called PCSK9 antigen
# Protocol: The CM5 chip was immobilized on all flowcells with mouse anti-human IgG (Fc specific) according to the Biacore Human Antibody Capture Kit (Cat# BR-1008-39) to ˜7000RU. Anti-PCSK9 antibodies were captured on the chip to ˜500RU followed by analyte injections of wild-type human PCSK9 from 64.1 nM to 2.0 nM. Each flowcell was regenerated between each analyte injection with 3M MgCl for 40 seconds at 10 uL/min. Data was analyzed with Biacore T100 Evaluation Software using the 1:1 binding model using at least 5 point concentration range sensogram.
# [8] = molecular target: T1, FcγRIIb (Pichia pastoris produced); test: ELISA-type plate assay, FcγR coated, antibody dimerized with AP-conjugated goat anti-human IgG F(ab')2, RFU readout; remark: listed apart in the source
# Protocol: as §1
# [9] = molecular target: T4, FcγRIIIa-V158 (Pichia pastoris produced); test: fold change of the Table 12 affinities; Table 13 fold change computed from the Table 12 affinities
# Protocol: as §1, with “These dimerized F(ab′)2/antibody complexes were also serially diluted and 100 μL per well were added to the remaining receptor plates and all plates were incubated for one hour at room temperature.” left out
# [10] = molecular target: T1, FcγRIIb (Pichia pastoris produced); test: ELISA-type plate assay, FcγR coated, antibody dimerized with AP-conjugated goat anti-human IgG F(ab')2, RFU readout; remark: listed apart in the source
# Protocol: as §1
# [11] = molecular target: T2, FcγRIIA H; test: FcγR affinity assay 'as described in Example 7', n = 3; printed as Affinity (nM) ± STDEV; footnote: values > ~5000 nM mean a poor binder
# Protocol: as §1
# [12] = molecular target: T1, FcγRIIb (Pichia pastoris produced); test: fold change of the Table 12 affinities
# Protocol: as §1
# [13] = molecular target: T2, FcγRIIA H; test: fold change of the Table 12 affinities (arrow not given)
# Protocol: as §1, with “These dimerized F(ab′)2/antibody complexes were also serially diluted and 100 μL per well were added to the remaining receptor plates and all plates were incubated for one hour at room temperature.” left out
# [14] = molecular target: T3, FcγRIIIa-F158 (Pichia pastoris produced); test: FcγR affinity assay 'as described in Example 7', n = 3; printed as Affinity (nM) ± STDEV; footnote: values > ~5000 nM mean a poor binder
# Protocol: as §1
# [15] = molecular target: T4, FcγRIIIa-V158 (Pichia pastoris produced); test: as above
# Protocol: as §1
# [16] = molecular target: T3, FcγRIIIa-F158 (Pichia pastoris produced); test: fold change of the Table 12 affinities
# Protocol: as §1
# [17] = molecular target: T2, FcγRIIA H; test: fold change of the Table 12 affinities
# Protocol: as §1
Binder,Kd [1],fold change in affinity vs 1F11 IgG1 GS5.0 [2],EC50 (read off the curve) [3],EC50 (read off the curve) [4],Kd [5],Kd [6],Kd [7],EC50 (read off the curve) [8],fold change in affinity vs 1F11 IgG1 GS5.0 [9],EC50 (read off the curve) [10],Kd [11],fold change in affinity vs 1F11 IgG1 GS5.0 [12],fold change in affinity vs 1F11 IgG1 GS5.0 [13],Kd [14],Kd [15],fold change in affinity vs hFcDM [16],fold change in affinity vs hFcDM [12],fold change in affinity vs hFcDM [17]
B1,0.029 µM,103 fold,~0.05 µg/mL,~0.04 µg/mL,> 5 µM,> 5 µM,0.00364 µM,~0.04 µg/mL and ~0.1 µg/mL,> 10000 fold,~0.03 µg/mL,8.15 µM,19 fold,9 fold,–,–,–,–,–
B2,0.028 µM,–,–,–,–,–,–,–,–,–,9.13 µM,–,–,30.6 µM,6.4 µM,9 fold,100 fold,1 fold
